Earlier results as cited in PMC10301793 (Marine Drugs, 2023).
Where no end group is shown, it is not given here.

Biological target: α6/α3β4 nAChR (Rattus norvegicus, UniProt P04757+P12392+P43143)
Conditions: cited from earlier work

For “[D1G,∆Q14]LvIC: LvIC analogue (GCCANPVCNGKHC-NH2; ends and bridges not checked)”, the IC50 is listed as 19 nM.
